From patent US11306156
Several values for one entry are separate records, joined by “and”; a condition that tells them apart may be missing. Equal values may be shown once. Values belong to the substance of their own block, whether it stands above or below them.

Columns and labels:
[1] = biological target: D3H44 light chain F116A_L135V (Kabat), N-terminal HA or FLAG tag; assay: LCCA co-expression, competing light chain m33, L1:L2 DNA 1:3 normalized to 1:1, SPR tag read-out
[2] = biological target: D3H44 light chain F116A_L135V (Kabat), N-terminal HA or FLAG tag; assay: LCCA co-expression, competing light chain m33, L1:L2 DNA 1:9 normalized to 1:1, SPR tag read-out
[3] = biological target: D3H44 light chain S131T_L135F_S176F_T178F (Kabat), N-terminal HA or FLAG tag; assay: LCCA co-expression, competing light chain m34, L1:L2 DNA 1:3 normalized to 1:1, SPR tag read-out
[4] = biological target: D3H44 light chain S131T_L135F_S176F_T178F (Kabat), N-terminal HA or FLAG tag; assay: LCCA co-expression, competing light chain m34, L1:L2 DNA 1:9 normalized to 1:1, SPR tag read-out
[5] = biological target: D3H44 light chain L135W_S176L (Kabat), N-terminal HA or FLAG tag; assay: LCCA co-expression, competing light chain m34, L1:L2 DNA 1:3 normalized to 1:1, SPR tag read-out
[6] = biological target: D3H44 light chain L135W_S176L (Kabat), N-terminal HA or FLAG tag; assay: LCCA co-expression, competing light chain m34, L1:L2 DNA 1:9 normalized to 1:1, SPR tag read-out
[7] = biological target: D3H44 light chain F116A_L135V (Kabat), N-terminal HA or FLAG tag; assay: LCCA co-expression, competing light chain m35, L1:L2 DNA 1:3 normalized to 1:1, SPR tag read-out
[8] = biological target: D3H44 light chain F116A_L135V (Kabat), N-terminal HA or FLAG tag; assay: LCCA co-expression, competing light chain m35, L1:L2 DNA 1:9 normalized to 1:1, SPR tag read-out
[9] = biological target: D3H44 light chain Q124R_Q160K_T178R (Kabat) with N-terminal HA or FLAG tag; assay: LCCA, SPR read-out of light-chain tags; light-chain DNA 1:3 normalized to 1:1; competing light chain m17
[10] = biological target: D3H44 light chain Q124E_Q160E_T178E (Kabat) with N-terminal HA or FLAG tag; assay: LCCA, SPR read-out of light-chain tags; light-chain DNA 1:3 normalized to 1:1; competing light chain m20
[11] = biological target: D3H44 light chain Q124E_Q160E_T180E (Kabat) with N-terminal HA or FLAG tag; assay: as above
[12] = biological target: D3H44 light chain Q124E_T178E (Kabat) with N-terminal HA or FLAG tag; assay: as above
[13] = biological target: D3H44 light chain S131E (Kabat) with N-terminal HA or FLAG tag; assay: as above
[14] = biological target: D3H44 light chain Q124E_V133E_Q160F (Kabat) with N-terminal HA or FLAG tag; assay: LCCA, SPR read-out of light-chain tags; light-chain DNA 1:3 normalized to 1:1; competing light chain m23
[15] = biological target: D3H44 light chain Q124R (Kabat) with N-terminal HA or FLAG tag; assay: LCCA, SPR read-out of light-chain tags; light-chain DNA 1:3 normalized to 1:1; competing light chain m24
[16] = biological target: D3H44 light chain Q124R_Q160K_T178R (Kabat) with N-terminal HA or FLAG tag; assay: LCCA, SPR read-out of light-chain tags; light-chain DNA 1:3 normalized to 1:1; competing light chain m25
[17] = biological target: D3H44 light chain Q124R_Q160K_T178R (Kabat) with N-terminal HA or FLAG tag; assay: LCCA, SPR read-out of light-chain tags; light-chain DNA 1:3 normalized to 1:1; competing light chain m27
[18] = biological target: D3H44 light chain Q124R_Q160K_T178R (Kabat) with N-terminal HA or FLAG tag; assay: LCCA, SPR read-out of light-chain tags; light-chain DNA 1:3 normalized to 1:1; competing light chain m30
[19] = biological target: D3H44 light chain Q124E_S131T_T178F_T180E (Kabat) with N-terminal HA or FLAG tag; assay: LCCA, SPR read-out of light-chain tags; light-chain DNA 1:3 normalized to 1:1; competing light chain m20
[20] = biological target: D3H44 light chain Q124R_Q160K_T178R (Kabat) with N-terminal HA or FLAG tag; assay: LCCA, SPR read-out of light-chain tags; light-chain DNA 1:3 normalized to 1:1; competing light chain m22
[21] = biological target: D3H44 light chain Q124E_Q160E_T180E (Kabat) with N-terminal HA or FLAG tag; assay: LCCA, SPR read-out of light-chain tags; light-chain DNA 1:3 normalized to 1:1; competing light chain m16
[22] = biological target: D3H44 light chain Q124K_T178R (Kabat) with N-terminal HA or FLAG tag; assay: LCCA, SPR read-out of light-chain tags; light-chain DNA 1:3 normalized to 1:1; competing light chain m17
[23] = biological target: D3H44 light chain Q124R_T178K (Kabat) with N-terminal HA or FLAG tag; assay: as above
[24] = biological target: D3H44 light chain Q124R_T178R (Kabat) with N-terminal HA or FLAG tag; assay: as above
[25] = biological target: D3H44 light chain T178R (Kabat) with N-terminal HA or FLAG tag; assay: as above
[26] = biological target: D3H44 light chain Q124E_Q160E_T180E (Kabat) with N-terminal HA or FLAG tag; assay: LCCA, SPR read-out of light-chain tags; light-chain DNA 1:3 normalized to 1:1; competing light chain m18
[27] = biological target: D3H44 light chain Q124E_T180E (Kabat) with N-terminal HA or FLAG tag; assay: as above
[28] = biological target: D3H44 light chain T178R (Kabat) with N-terminal HA or FLAG tag; assay: LCCA, SPR read-out of light-chain tags; light-chain DNA 1:3 normalized to 1:1; competing light chain m19
[29] = biological target: D3H44 light chain Q124E_S131T_T178Y_T180E (Kabat) with N-terminal HA or FLAG tag; assay: LCCA, SPR read-out of light-chain tags; light-chain DNA 1:3 normalized to 1:1; competing light chain m20
[30] = biological target: D3H44 light chain Q124E_S176L_T180E (Kabat) with N-terminal HA or FLAG tag; assay: as above
[31] = biological target: D3H44 light chain Q124E_Q160E_T180E (Kabat) with N-terminal HA or FLAG tag; assay: LCCA, SPR read-out of light-chain tags; light-chain DNA 1:3 normalized to 1:1; competing light chain m21
[32] = biological target: D3H44 light chain Q124E_S131T_T178F_T180E (Kabat) with N-terminal HA or FLAG tag; assay: as above
[33] = biological target: D3H44 light chain Q124R_T178R (Kabat) with N-terminal HA or FLAG tag; assay: LCCA, SPR read-out of light-chain tags; light-chain DNA 1:3 normalized to 1:1; competing light chain m22
[34] = biological target: D3H44 light chain Q124E_Q160E_T180E (Kabat) with N-terminal HA or FLAG tag; assay: LCCA, SPR read-out of light-chain tags; light-chain DNA 1:3 normalized to 1:1; competing light chain m26
[35] = biological target: D3H44 light chain Q124R_Q160K_T178R (Kabat) with N-terminal HA or FLAG tag; assay: LCCA, SPR read-out of light-chain tags; light-chain DNA 1:3 normalized to 1:1; competing light chain m28
[36] = biological target: D3H44 light chain Q124R_Q160K_T178R (Kabat) with N-terminal HA or FLAG tag; assay: LCCA, SPR read-out of light-chain tags; light-chain DNA 1:3 normalized to 1:1; competing light chain m29
[37] = biological target: D3H44 light chain Q124R_T178R (Kabat) with N-terminal HA or FLAG tag; assay: LCCA, SPR read-out of light-chain tags; light-chain DNA 1:9 normalized to 1:1; competing light chain m17
[38] = biological target: D3H44 light chain Q124E_Q160E_T180E (Kabat) with N-terminal HA or FLAG tag; assay: LCCA, SPR read-out of light-chain tags; light-chain DNA 1:9 normalized to 1:1; competing light chain m21
[39] = biological target: D3H44 Fab heavy chain L143A_Q179K; assay: LCCA, L1:L2 DNA 1:3 normalised to 1:1, SPR of light chain tags; competitor m33
[40] = biological target: D3H44 Fab heavy chain L143E_K145T_S188L; assay: as above
[41] = biological target: D3H44 Fab heavy chain L143E_K145T; assay: LCCA, L1:L2 DNA 1:3 normalised to 1:1, SPR of light chain tags; competitor m32

- H1L1:H1L2 normalized median ratio [1]: 49 of 100
- H1L1:H1L2 normalized median ratio [2]: 40 of 100
- H1L1:H1L2 normalized median ratio [3]: 51 of 100
- H1L1:H1L2 normalized median scalar value ln(r1/f1) [3]: 0.03
- H1L1:H1L2 normalized median ratio [4]: 60 of 100
- H1L1:H1L2 normalized median scalar value ln(r1/f1) [4]: 0.42
Substance: D3H44 Fab heavy chain A139G_F174V_V190A (Kabat), C-terminal ABD2-His6 tag

- H1L1:H1L2 normalized median ratio [9]: 72%
- H1L1:H1L2 normalized median scalar value ln(r1/f1) [9]: 0.95 and 0.96
- H1L1:H1L2 normalized median ratio [10]: 41%
- H1L1:H1L2 normalized median ratio [11]: 28%
- H1L1:H1L2 normalized median ratio [12]: 41%
- H1L1:H1L2 normalized median ratio [13]: 53%
- H1L1:H1L2 normalized median ratio [14]: 15%
- H1L1:H1L2 normalized median ratio [15]: 85%
- H1L1:H1L2 normalized median scalar value ln(r1/f1) [15]: 1.75
- H1L1:H1L2 normalized median ratio [16]: 59%
- H1L1:H1L2 normalized median scalar value ln(r1/f1) [16]: 0.37
- H1L1:H1L2 normalized median ratio [17]: 59%
- H1L1:H1L2 normalized median scalar value ln(r1/f1) [17]: 0.36
- H1L1:H1L2 normalized median ratio [18]: 47%
- H1L1:H1L2 normalized median scalar value ln(r1/f1) [18]: -0.14
Substance: D3H44 Fab heavy chain L143E_K145T (Kabat) with C-terminal ABD2-His6 tag

- H2L2:H2L1 normalized median ratio [19]: 96%
- H2L2:H2L1 normalized median ratio [13]: 97%
- H2L2:H2L1 normalized median ratio [20]: 4%
- H2L2:H2L1 normalized median ratio [18]: 3%
Substance: D3H44 Fab heavy chain Q179R (Kabat) with C-terminal ABD2-His6 tag

The remaining lines, values behind:

Substance: D3H44 Fab heavy chain A139G_V190A (Kabat), C-terminal ABD2-His6 tag
- H1L1:H1L2 normalized median ratio [5]: 32 of 100
- H1L1:H1L2 normalized median scalar value ln(r1/f1) [5]: -0.77
- H1L1:H1L2 normalized median ratio [6]: 72 of 100
- H1L1:H1L2 normalized median scalar value ln(r1/f1) [6]: 0.94
- H1L1:H1L2 normalized median ratio [7]: 68 of 100
- H1L1:H1L2 normalized median ratio [8]: 28 of 100

Substance: D3H44 Fab heavy chain A139W_S188L (Kabat), C-terminal ABD2-His6 tag
- H2L2:H2L1 normalized median ratio [1]: 59 of 100
- H2L2:H2L1 normalized median ratio [2]: 55 of 100
- H2L2:H2L1 normalized median ratio [5]: 34 of 100
- H2L2:H2L1 normalized median ratio [3]: 41 of 100
- H2L2:H2L1 normalized median ratio [6]: 25 of 100
- H2L2:H2L1 normalized median ratio [4]: 45 of 100
- H2L2:H2L1 normalized median ratio [7]: 66 of 100
- H2L2:H2L1 normalized median ratio [8]: 75 of 100

Substance: D3H44 Fab heavy chain S186R (Kabat) with C-terminal ABD2-His6 tag
- H2L2:H2L1 normalized median ratio [21]: 82%
- H2L2:H2L1 normalized median ratio [22]: 18%
- H2L2:H2L1 normalized median ratio [9]: 20%
- H2L2:H2L1 normalized median ratio [23]: 17%
- H2L2:H2L1 normalized median ratio [24]: 19%
- H2L2:H2L1 normalized median ratio [25]: 28%
- H2L2:H2L1 normalized median ratio [26]: 72%
- H2L2:H2L1 normalized median ratio [27]: 96%
- H2L2:H2L1 normalized median ratio [28]: 4%
- H2L2:H2L1 normalized median ratio [10]: 95%
- H2L2:H2L1 normalized median ratio [11]: 80%
- H2L2:H2L1 normalized median ratio [19]: 90%
- H2L2:H2L1 normalized median ratio [29]: 88%
- H2L2:H2L1 normalized median ratio [30]: 95%
- H2L2:H2L1 normalized median ratio [12]: 96%
- H2L2:H2L1 normalized median ratio [31]: 81%
- H2L2:H2L1 normalized median ratio [32]: 90%
- H2L2:H2L1 normalized median ratio [20]: 10%
- H2L2:H2L1 normalized median ratio [33]: 10%
- H2L2:H2L1 normalized median ratio [16]: 5%
- H2L2:H2L1 normalized median ratio [34]: 83%
- H2L2:H2L1 normalized median ratio [17]: 4%
- H2L2:H2L1 normalized median ratio [35]: 5%
- H2L2:H2L1 normalized median ratio [36]: 12%
- H2L2:H2L1 normalized median ratio [37]: 14%
- H2L2:H2L1 normalized median ratio [38]: 86%

Substance: D3H44 light chain Q124E_V133Y_T180E
- H1L1:H1L2 normalized median ratio [39]: 96%
- H1L1:H1L2 normalized median scalar value ln(r1/f1) [39]: 3.13
- H2L2:H2L1 normalized median ratio [40]: 44%

Substance: D3H44 light chain Q124R_T178R
- H1L1:H1L2 normalized median scalar value ln(r1/f1) [41]: -0.16
